The record followed here is patent US20160367497A1, “METHODS AND COMPOSITIONS FOR TREATING NEUROPATHIES” (Washington University, priority 2007, published 2016).

Assay [1] deals with DRG neuronal explant cultures. As to the kind of experiment: in vitro Wallerian degeneration assay, DRG explant neurite transection. Format: cell-based, mouse. The following applies: lentivirus-mediated expression in DRG neurons. Here is the method: (§1) To identify the mechanism of delayed axonal degeneration mediated by the Wlds protein, we employed an in-vitro Wallerian degeneration model. Primary DRG explant neurons were infected with lentivirus expressing the appropriate proteins, and axons were injured by either removal of the neuronal cell body (transection) or growth in vincristine (toxic).
Mouse DRG explants from E12.5 embryos were cultured in the presence of 1 nM nerve growth factor. Non-neuronal cells were removed from the cultures by adding 5-fluorouracil to the culture medium. Transection of neurites was performed at 10-20 DIV using an 18-gauge needle to remove the neuronal cell bodies. […]
Quantitative analysis of axonal degeneration was performed as previously described (Zhai, et al., Neuron 39:217-25, 2003). […] Axons with a fragmented, non-refractile appearance were designated as “degenerated.” At each time point, at least 200 singly distinguishable axons were blindly scored from several randomly taken images of each culture. […] For calculations of neurite-covered area, digitally captured images from quadruplicate samples of two independent experiments were analyzed using analysis 3.1 software (Soft Imaging System, Lakewood, Colo.).
Cell culture, in vitro axotomy, and quantification of axonal degeneration. […] Quantitative analysis of neurite degeneration was performed.

Assay [2] relates to DRG neuronal explant. As to the kind of experiment: vincristine-induced axonal degeneration in DRG neuronal explants. Format: cell-based, mouse. Conditions: 0.5 μM vincristine for up to 9 d; lentiviral expression. Here is the method:
as §1
Quantitative analysis of axonal degeneration was performed as previously described (Zhai, et al., Neuron 39:217-25, 2003). Briefly, the cultures were examined using phase contrast microscopy at the indicated times. Axons with a fragmented, non-refractile appearance were designated as “degenerated.” At each time point, at least 200 singly distinguishable axons were blindly scored from several randomly taken images of each culture. Each condition was tested in triplicate explants in each experiment. Results were obtained from 2-4 independent experiments for each condition. Statistical analysis was performed by Student's T test. For calculations of neurite-covered area, digitally captured images from quadruplicate samples of two independent experiments were analyzed using analysis 3.1 software (Soft Imaging System, Lakewood, Colo.). […]

B1: NmPRT: nicotinamide phosphoribosyltransferase (protein, UniProt P43490 1-491, looked up)
Nicotinamide …: MNPAAEAEFNILLATDSYKVTHYKQYPPNTSKVYSYFECREKKTENSKLRKVKYEETVFYGLQYILNKYLKGKVVTKEKIQEAKDVYKEHFQDDVFNEKGWNYILEKYDGHLPIEIKAVPEGFVIPRGNVLFTVENTDPECYWLTNWIETILVQSWYPITVATNSREQKKILAKYLLETSGNLDGLEYKLHDFGYRGVSSQETAGIGASAHLVNFKGTDTVAGLALIKKYYGTKDPVPGYSVPAAEHSTITAWGKDHEKDAFEHIVTQFSSVPVSVVSDSYDIYNACEKIWGEDLRHLIVSRSTQAPLIIRPDSGNPLDTVLKVLEILGKKFPVTENSKGYKLLPPYLRVIQGDGVDINTLQEIVEGMKQKMWSIENIAFGSGGGLLQKLTRDLLNCSFKCSYVVTNGLGINVFKDPVADPNKRSKKGRLSLHRTPAGNFVTLEEGKGDLEEYGQDLLHTVFKNGKVTKSYSFDEIRKNAQLNIELEAAHH
Regarding B1, the “axonal/neurite degeneration after transection” value in assay [1] is on record as “shows axonal protection”.

B2: NMNAT1: nicotinamide mononucleotide adenylyltransferase1, lentivirus expressed (protein, UniProt Q9EPA7 1-285, looked up)
Nicotinamide/nicotinic acid …: MDSSKKTEVVLLACGSFNPITNMHLRLFELAKDYMHATGKYSVIKGIISPVGDAYKKKGLIPAHHRIIMAELATKNSHWVEVDTWESLQKEWVETVKVLRYHQEKLATGSCSYPQSSPALEKPGRKRKWADQKQDSSPQKPQEPKPTGVPKVKLLCGADLLESFSVPNLWKMEDITQIVANFGLICITRAGSDAQKFIYESDVLWRHQSNIHLVNEWITNDISSTKIRRALRRGQSIRYLVPDLVQEYIEKHELYNTESEGRNAGVTLAPLQRNAAEAKHNHSTL
Turning to B2, the “axon length and refractility” value in assay [2] was “maintained their original length and refractility”.
